Publication PMC1933424

B1: Rhizopus oryzae glucoamylase (RoGA): Asn167 to Gln (protein)
parent chain: MQLFNLPLKVSFFLVLSYFSLLVSAASIPSSASVQLDSYNYDGSTFSGKIYVKNIAYSKKVTVIYADGSDNWNNNGNTIAASYSAPISGSNYEYWTFSASINGIKEFYIKYEVSGKTYYDNNNSANYQVSTSKPTTTTATATTTTAPSTSTTTPPSRSEPATFPTGNSTISSWIKKQEGISRFAMLRNINPPGSATGFIAASLSTAGPDYYYAWTRDAALTSNVIVYEYNTTLSGNKTILNVLKDYVTFSVKTQSTSTVCNCLGEPKFNPDASGYTGAWGRPQNDGPAERATTFILFADSYLTQTKDASYVTGTLKPAIFKDLDYVVNVWSNGCFDLWEEVNGVHFYTLMVMRKGLLLGADFAKRNGDSTRASTYSSTASTIANKISSFWVSSNNWIQVSQSVTGGVSKKGLDVSTLLAANLGSVDDGFFTPGSEKILATAVAVEDSFASLYPINKNLPSYLGNSIGRYPEDTYNGNGNSQGNSWFLAVTGYAELYYRAIKEWIGNGGVTVSSISLPFFKKFDSSATSGKKYTVGTSDFNNLAQNIALAADRFLSTVQLHAHNNGSLAEEFDRTTGLSTGARDLTWSHASLITASYAKAGAPAA
B2: Rhizopus oryzae glucoamylase (RoGA): T165A (protein)
parent chain: B1 parent chain

Assays:
[1] = Western blot of yeast culture supernatant, 30°C; conditions: glycan lost; control: wild-type full-length GA
[2] = extracellular GA activity of yeast cultures, 30°C; conditions: glycan lost; control: wild-type full-length GA

Protein | expression_or_secretion [1] | enzymatic_activity [2]
B1 | decreases | 
B2 | no change | no change
